Results as given in patent publication US20130183378A1 (CEDARS SINAI MEDICAL CENTER, published 2013).

B1: mouse counterpart of SEQ ID NO:1, MLLQVSHYL (SEQ ID NO:11) (peptide)
peptide: MLLQVSHYL
notes: Free peptide added to T2 cells at 0, 10 or 100 µM; also called mouse peptide
B2: CD133-708 (peptide)
peptide: GLLERVTRI
notes: Free peptide added to T2 cells; also called peptide 708
B3: CD133-301 (peptide)
peptide: SLNDPLCLV
notes: Free peptide added to T2 cells; also called peptide 301
B4: CD133-804 (peptide)
peptide: FLLPALIFAV
notes: Free peptide added to T2 cells; also called peptide 804
B5: CD133-117 (peptide)
peptide: LLFIILMPLV
notes: Free peptide added to T2 cells; also called peptide 117

Assays:
HLA-A*0201 on T2 cells [1] = molecular target: T1, HLA-A*0201 on T2 cells (human); assay: T2 cells incubated overnight with 0, 10 or 100 µM peptide, Brefeldin A, BB7.2 mAb staining, flow cytometry; fluorescence increased in a dose-dependent manner
T1 construct: the class I molecule on T2 cells that the added peptide stabilises; also called HLA-A2; HLA-A2 molecules
Procedure: T2 cells were incubated overnight with 0 μM, 10 μM, or 100 μM of SEQ ID NO:11. The cells were then incubated with Brefeldin A (Sigma, St. Louis, Mo.) at 10 μg/ml for 1 hour, washed, incubated at 37° C. in the presence of Brefeldin A (0.5 μg/ml), and then stained with BB7.2 mAb. Fluorescence intensity was measured by flow cytometry.

HLA-A*0201 on T2 cells [2] = molecular target: T1, HLA-A*0201 on T2 cells; assay: T2 cell HLA-A*0201 stabilisation; 100 µM peptide overnight, Brefeldin A, BB7.2 mAb staining, flow cytometry; MFI minus no-peptide control
Procedure: The cells were then incubated with Brefeldin A (Sigma, St. Louis, Mo.) at 10 μg/ml for 1 hour, washed, incubated at 37° C. for 0, 3, or 6 hours in the presence of Brefeldin A (0.5 μg/ml), and then stained with BB7.2 mAb.

Binder	binding result (HLA-A*0201 on T2 cells [1])	MFI (0 hour) (HLA-A*0201 on T2 cells [2]) [MFI]	MFI (3 hour) (HLA-A*0201 on T2 cells [2]) [MFI]	MFI (6 hour) (HLA-A*0201 on T2 cells [2]) [MFI]
B1	binds	–	–	–
B2	–	13.1	14.8	1.3
B3	–	10.7	14.3	13.3
B4	–	89	67.6	34.7
B5	–	5.5	7.5	1.01
ILSAFSVYV (Free peptide added to T2 cells) [CD133-405]	–	79.7	69.3	44.5
